Data taken from US20240270865A1 (INNATE PHARMA, published 2024).
Residue numbers refer to the chain shown, from its start.

T1: human CD73 expressed on cells (human, UniProt P21589 27-549)
T1 sequence: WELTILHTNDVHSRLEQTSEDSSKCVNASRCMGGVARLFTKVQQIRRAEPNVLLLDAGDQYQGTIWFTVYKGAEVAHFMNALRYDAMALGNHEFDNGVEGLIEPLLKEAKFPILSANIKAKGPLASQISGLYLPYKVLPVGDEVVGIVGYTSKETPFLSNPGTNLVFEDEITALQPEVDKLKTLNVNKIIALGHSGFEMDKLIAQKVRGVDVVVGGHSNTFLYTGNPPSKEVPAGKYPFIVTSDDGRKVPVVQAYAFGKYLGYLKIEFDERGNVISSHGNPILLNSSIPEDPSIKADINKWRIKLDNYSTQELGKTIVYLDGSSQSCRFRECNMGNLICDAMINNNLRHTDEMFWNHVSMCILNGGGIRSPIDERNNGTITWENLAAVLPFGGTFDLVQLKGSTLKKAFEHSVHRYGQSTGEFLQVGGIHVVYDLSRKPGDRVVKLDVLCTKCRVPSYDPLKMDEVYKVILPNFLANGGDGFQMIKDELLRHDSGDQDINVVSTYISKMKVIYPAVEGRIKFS

T2: CD73 in human serum (human, UniProt P21589 27-574)
T2 sequence: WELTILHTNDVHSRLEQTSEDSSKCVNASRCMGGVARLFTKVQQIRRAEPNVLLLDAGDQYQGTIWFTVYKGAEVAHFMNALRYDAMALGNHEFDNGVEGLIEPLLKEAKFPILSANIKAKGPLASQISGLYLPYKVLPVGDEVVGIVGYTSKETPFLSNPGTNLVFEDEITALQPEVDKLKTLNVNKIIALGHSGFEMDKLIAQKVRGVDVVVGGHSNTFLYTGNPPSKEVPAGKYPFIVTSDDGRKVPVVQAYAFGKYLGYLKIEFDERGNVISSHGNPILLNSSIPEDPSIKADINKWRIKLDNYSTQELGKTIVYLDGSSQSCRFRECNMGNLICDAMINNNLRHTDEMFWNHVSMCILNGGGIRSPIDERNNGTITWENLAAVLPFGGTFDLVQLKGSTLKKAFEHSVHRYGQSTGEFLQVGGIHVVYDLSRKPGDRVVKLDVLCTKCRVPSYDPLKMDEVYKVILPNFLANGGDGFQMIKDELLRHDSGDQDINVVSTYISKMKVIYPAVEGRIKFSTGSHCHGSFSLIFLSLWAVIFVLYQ

T3: recombinant human soluble CD73 protein (cloned huCD73 with C-terminal 6xHis tag) (human, UniProt P21589 27-547)
T3 construct: also called recombinant CD73 protein; CD73 recombinant protein
T3 sequence: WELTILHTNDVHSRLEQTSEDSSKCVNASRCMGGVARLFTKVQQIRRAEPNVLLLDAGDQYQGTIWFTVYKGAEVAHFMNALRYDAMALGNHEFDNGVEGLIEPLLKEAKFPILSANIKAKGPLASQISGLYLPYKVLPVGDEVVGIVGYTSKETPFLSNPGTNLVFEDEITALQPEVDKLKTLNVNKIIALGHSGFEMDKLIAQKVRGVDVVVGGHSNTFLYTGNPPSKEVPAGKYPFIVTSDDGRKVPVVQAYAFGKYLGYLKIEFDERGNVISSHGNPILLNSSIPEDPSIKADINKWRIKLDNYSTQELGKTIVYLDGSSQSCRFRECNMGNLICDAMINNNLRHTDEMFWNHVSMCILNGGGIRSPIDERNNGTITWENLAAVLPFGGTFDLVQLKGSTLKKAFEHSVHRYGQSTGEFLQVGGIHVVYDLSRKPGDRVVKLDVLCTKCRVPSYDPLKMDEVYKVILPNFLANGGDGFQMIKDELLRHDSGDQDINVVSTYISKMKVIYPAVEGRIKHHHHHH

B1: 2H4+2L1 anti-CD73 antibody (antibody, human IgG1, kappa, V domains shown)
VH: QIQLVQSGAEVKKPGASVKVSCKASGYTFASYNMYWVRQAPGQRLEWIGYIDPYNGGSSYNQKFKGRVTLTRDKSASTAYMELSSLRSEDTAVYYCARGYNNYKAWFAYWGQGTLVTVSS
VL: DIQMTQSPSSLSASVGDRVTITCKASQSVTNDVAWYQQKPGKAPKLLIYYASNRYTGVPSRFSGSGYGTDFTFTISSLQPEDIATYYCQQDYSSLTFGQGTKLEIKR
B2: H2L2 (antibody, human IgG1, V domains shown)
VH: B1 VH with T28A, A30T, R44S, I48M, Q62L, K63T, L70I, R72V, N101G
VL: DIQMTQSPSSLSASVGDRVTITCKASQSVSNDVAWYQQKPGKAPKLLIYYASTRYTGVPDRFSGSGYGTDFTFTISSLQPEDIATYYCQQDYSSLTFGQGTKLEIK
notes: also called H2 variant
B3: H4L1 (antibody, human IgG1, V domains shown)
VH: B1 VH with T28A, R44S, Q62L, K63T, R67K, V68A, R72V, N101G
VL: B2 VL with D60S
notes: also called H4 variant
B4: H2L3 (antibody, human IgG1, V domains shown)
VH: B1 VH with T28A, A30T, R44S, I48M, Q62L, K63T, L70I, R72V, N101G
VL: B2 VL with I2V
notes: also called H2 variant
B5: H3L2 (antibody, human IgG1, V domains shown)
VH: B1 VH with T28A, A30T, R44S, Q62L, K63T, R67K, V68A, L70I, R72V, N101G
VL: B2 VL
notes: also called H3 variant
B6: H1L4 (antibody, human IgG1, V domains shown)
VH: B1 VH with A30T, I48M, Q62L, K63T, L70I, N101G
VL: B2 VL with I2V, Y87F
notes: also called H1 variant
B7: H4L4 (antibody, human IgG1, V domains shown)
VH: B1 VH with T28A, R44S, Q62L, K63T, R67K, V68A, R72V, N101G
VL: B2 VL with I2V, Y87F
notes: also called H4 variant
B8: H4L3 (antibody, human IgG1, V domains shown)
VH: B1 VH with T28A, R44S, Q62L, K63T, R67K, V68A, R72V, N101G
VL: B2 VL with I2V
notes: also called H4 variant
B9: H1L2 (antibody, human IgG1, V domains shown)
VH: B1 VH with A30T, I48M, Q62L, K63T, L70I, N101G
VL: B2 VL
notes: also called H1 variant
B10: H1L3 (antibody, human IgG1, V domains shown)
VH: B1 VH with A30T, I48M, Q62L, K63T, L70I, N101G
VL: B2 VL with I2V
notes: also called H1 variant
B11: H4L2 (antibody, human IgG1, V domains shown)
VH: B1 VH with T28A, R44S, Q62L, K63T, R67K, V68A, R72V, N101G
VL: B2 VL
notes: also called H4 variant
B12: H1L1 (antibody, human IgG1, V domains shown)
VH: B1 VH with A30T, I48M, Q62L, K63T, L70I, N101G
VL: B2 VL with D60S
notes: also called H1 variant
B13: H3L3 (antibody, human IgG1, V domains shown)
VH: B1 VH with T28A, A30T, R44S, Q62L, K63T, R67K, V68A, L70I, R72V, N101G
VL: B2 VL with I2V
notes: also called H3 variant
B14: H2L1 (antibody, human IgG1, V domains shown)
VH: B1 VH with T28A, A30T, R44S, I48M, Q62L, K63T, L70I, R72V, N101G
VL: B2 VL with D60S
notes: also called H2 variant
B15: H3L4 (antibody, human IgG1, V domains shown)
VH: B1 VH with T28A, A30T, R44S, Q62L, K63T, R67K, V68A, L70I, R72V, N101G
VL: B2 VL with I2V, Y87F
notes: also called H3 variant
B16: H2L4 (antibody, human IgG1, V domains shown)
VH: B1 VH with T28A, A30T, R44S, I48M, Q62L, K63T, L70I, R72V, N101G
VL: B2 VL with I2V, Y87F
notes: also called H2 variant
B17: H3L1 (antibody, human IgG1, V domains shown)
VH: B1 VH with T28A, A30T, R44S, Q62L, K63T, R67K, V68A, L70I, R72V, N101G
VL: B2 VL with D60S
notes: also called H3 variant

The binders below were run against T1, human CD73 expressed on cells (assay: cell-based or functional assay).

Q: B1 was tested. Which “enzymatic inhibition, in vitro assay on A375 tumor cells (IC50)” value did it give?
A: Its value is 0.034 µg/mL.

Q: What about the “enzymatic inhibition, in vitro assay on MDA-MB231 tumor cells (IC50)” value of the same binder?
A: Its value is 0.127 µg/mL.

Q: And the “reversion of AMP inhibited T cell proliferation on CD4+ T cells (IC50)” value?
A: Its value is 0.0081 µg/mL.

Q: And the “reversion of AMP inhibited T cell proliferation on CD8+ T cells (IC50)” value?
A: Its value is 0.0077 µg/mL.

What follows are binders tested against T2, CD73 in human serum (assay: cell-based or functional assay).

Q: Which “enzymatic inhibition, in vitro assay on human serum (IC50)” value does the source give for B1 here?
A: The value was 0.0123 µg/mL.

Each binder was assayed against T3, recombinant human soluble CD73 protein … (assay: SPR, recombinant CD73 protein).
Description: SPR measurements were performed on a Biacore™ T200 apparatus at 25° C. Protein-A (GE Healthcare) was immobilized on a Sensor Chip CM5 (GE Healthcare). […] The entire sensorgram sets were fitted using the 1:1 kinetic binding model. Bivalent affinities and kinetic association and dissociation rate constants are calculated.

Q: Does B2 bind?
A: Result: binds

Q: Does B3 bind?
A: Result: binds

Q: Does B4 bind?
A: Result: binds

Q: Does B5 bind?
A: Result: binds

Q: Does B6 bind?
A: Result: binds

Q: Does B7 bind?
A: Result: binds

Q: Does B8 bind?
A: Result: binds

Q: Does B9 bind?
A: Result: binds

Q: Does B10 bind?
A: Result: binds

Q: Does B11 bind?
A: Result: binds

Q: Does B12 bind?
A: Result: binds

Q: Does B13 bind?
A: Result: binds

Q: Does B14 bind?
A: Result: binds

Q: Does B15 bind?
A: Result: binds

Q: Does B16 bind?
A: Result: binds

Q: Does B17 bind?
A: Result: binds
